Numbering of substitutions follows the chain as printed.
Key:
[1] = molecular target: human cell-derived natural IL-18 (human) (UniProt Q14116); test: cell-based or functional assay
[2] = molecular target: chymase cleavage-type IL-18 (UniProt Q14116); test: cell-based or functional assay
[3] = molecular target: T1, human IL-18 (MBL Medical & Biological Laboratories, Co., Ltd.) (human, UniProt Q14116 37-193, biotinylated (Biotin-PEAC5-maleimide or Biotin-AC5 Sulfo-OSu) in the streptavidin plate ELISAs and the panning; not labelled in the receptor binding and KG-1 assays); test: ELISA: biotinylated human IL-18 on streptavidin plate, anti-mouse IgG/HRP
T1 construct: Bought protein; also called human interleukin-18; biotinylated human IL-18
T1 sequence (looked up): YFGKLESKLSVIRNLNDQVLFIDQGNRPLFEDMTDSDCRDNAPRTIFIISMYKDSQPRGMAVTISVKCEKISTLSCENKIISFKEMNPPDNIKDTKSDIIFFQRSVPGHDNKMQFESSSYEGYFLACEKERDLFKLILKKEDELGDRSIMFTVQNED
Procedure: The biotinylated human IL-18 was diluted to 1 μg/mL with PBS (Sigma-Aldrich Corp.), added at 100 μL/well to Streptavidin plates (Nunc), and incubated at room temperature for 1 hour to immobilize the human IL-18. The plates were washed with PB ST, and human IL-18BPa-hFc (R&D Systems, Inc.) diluted to 10 μg/mL with 1% BSA-PBS was added at 100 μL/well to the plates and incubated at 37° C. for 1 hour to form a complex of IL-18 and IL-18BP. The plates were washed with PBST, and 4A6D scFv-mFc was added at 100 μL/well to the plates and incubated at 37° C. After 1 hour, the plates were washed with PBST, and a detection antibody anti-mouse IgG/HRP (Invitrogen Corp.) was added at 100 μL/well to the plates and incubated at 37° C. After 1 hour, the plates were washed with PBST, and TMB (Sigma-Aldrich Corp.) was added at 100 μL/well to the plates to develop color. After 30 minutes, the reaction was terminated with 1 M sulfuric acid, and the color values (O.D. 450 nm/650 nm) were measured using a microplate reader (Molecular Devices, Inc.).

[4] = molecular target: T1, human IL-18 (MBL Medical & Biological …); test: panning of an scFv phage library on biotinylated human IL-18 on streptavidin magnetic beads
[5] = molecular target: T2, rat IL-18 (Acris Antibodies GmbH) (rat, UniProt P97636 37-194, limits assumed, biotinylated (Biotin-PEAC5-maleimide or Biotin-AC5 Sulfo-OSu)); test: ELISA on biotinylated cytokine on streptavidin plates
T2 construct: also called biotinylated rat IL-18
T2 sequence (looked up): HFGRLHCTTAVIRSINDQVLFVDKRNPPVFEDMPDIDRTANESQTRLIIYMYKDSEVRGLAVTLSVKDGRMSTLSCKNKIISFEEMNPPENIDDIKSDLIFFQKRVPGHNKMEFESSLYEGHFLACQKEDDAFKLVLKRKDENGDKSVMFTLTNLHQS

[6] = molecular target: T3, human IL-1β (Funakoshi Corp.) (human, UniProt P01584 117-269, biotinylated (Biotin-PEAC5-maleimide or Biotin-AC5 Sulfo-OSu)); test: as above
T3 construct: also called biotinylated human IL-1β

[7] = molecular target: T4, human IL-33 (MBL Medical & Biological Laboratories, Co., Ltd.) (human, UniProt O95760 112-270, limits assumed, biotinylated (Biotin-PEAC5-maleimide or Biotin-AC5 Sulfo-OSu)); test: as above
T4 construct: also called biotinylated human IL-33
T4 sequence (looked up): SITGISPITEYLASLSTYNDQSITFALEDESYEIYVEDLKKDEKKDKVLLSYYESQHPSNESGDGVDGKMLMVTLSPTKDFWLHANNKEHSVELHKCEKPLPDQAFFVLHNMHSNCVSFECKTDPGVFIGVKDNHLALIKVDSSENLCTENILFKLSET

[8] = molecular target: T5, mouse IL-18 (MBL Medical & Biological Laboratories, Co., Ltd.) (mouse, UniProt P70380 36-192, biotinylated (Biotin-PEAC5-maleimide or Biotin-AC5 Sulfo-OSu)); test: as above
T5 construct: also called biotinylated mouse IL-18
T5 sequence (looked up): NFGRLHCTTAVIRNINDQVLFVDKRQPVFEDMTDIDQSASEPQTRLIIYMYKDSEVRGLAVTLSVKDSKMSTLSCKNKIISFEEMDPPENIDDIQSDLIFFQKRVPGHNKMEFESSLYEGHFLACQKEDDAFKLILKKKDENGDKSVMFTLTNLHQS

[9] = molecular target: T1, human IL-18 (MBL Medical & Biological …); test: cell-based or functional assay
[10] = molecular target: T1, human IL-18 (MBL Medical & Biological …); test: ELISA, biotinylated human IL-18 on streptavidin plate, HRP detection antibody, O.D. 450nm/650nm
Procedure: The binding activity of the obtained scFv phages, scFv, and IgG prepared by a standard method (conventional method) was evaluated by ELISA. The biotinylated human IL-18 or the biotinylated mouse IL-18 was diluted to 1 μg/mL with PBS (Sigma-Aldrich Corp.), added at 100 μL/well to Streptavidin plates (Nunc), and incubated at room temperature for 2 hours to immobilize the IL-18. After the immobilization, the plates were washed with PBST, and each obtained scFv phage, scFv, or IgG was added at 100 μL/well to the plates and incubated at 37° C. After 1 hour, the plates were washed with PBST, and a detection antibody anti-M13/HRP (GE Healthcare Japan Corp.), anti-His tag/HRP (Bethyl Laboratories, Inc.), anti-V5 tag/HRP (Bethyl Laboratories, Inc.), anti-mouse IgG/HRP (Invitrogen Corp.), or anti-hFc/HRP (Cosmo Bio Co., Ltd., The binding site) was added at 100 μL/well to the plates and incubated at 37° C. After 1 hour, the plates were washed with PBST, and TMB (Sigma-Aldrich Corp.) was added at 100 μL/well to the plates to develop color. After 30 minutes, the reaction was terminated with 2 N sulfuric acid, and the color values (O.D. 450 nm/650 nm) were measured using a microplate reader (Molecular Devices, Inc.).

Negative control antibody
Amount of IFN-γ produced [1]: 134 pg/mL | Amount of IFN-γ produced [2]: 109 pg/mL

B1: 4A6D scFv-mFc (Fc fusion)
scFv: EVQLVESGGGLVQPGGSMRLSCTASGFTFDEYAMSWVRQAPGKGLEWVSGISTGGGGTYYADSVEGRFTISRDNSKNTLYLQMNSLRAEDTAVYYCAKPWLSGSRSGDFWGQGTLVTVSSASTGGGGSGGGGSGGGGSQSALTQPASVSGSPGQSITISCTGTSSDVGGYNYVSWYQQHPGKAPKLLIYEVSHRPSGVSDRFSGSKSGNTASLTISGLQAEDEADYYCSSFTSSSSLYVFGTGTKLTVL
notes: not shown: mouse Fc (mFc) and any junction to it
EC50 (read off the curve) [3]: ~0.008 µg/mL

B2: 4A6D scFv phage (scFv)
scFv: B1 scFv
modifications: displayed on phage
notes: the phage coat fusion is not described; not shown: phage coat protein fusion (display partner) and any tags; not described
binding result [4]: binds

B3: 4A6S scFv phage (scFv)
scFv: B1 scFv with D30S
modifications: displayed on phage
notes: as for B2
binding result [4]: binds

B4: IgG molecule-type 4A6S (antibody, V domains shown)
VH: EVQLVESGGGLVQPGGSMRLSCTASGFTFSEYAMSWVRQAPGKGLEWVSGISTGGGGTYYADSVEGRFTISRDNSKNTLYLQMNSLRAEDTAVYYCAKPWLSGSRSGDFWGQGTLVTVSS
VL: QSALTQPASVSGSPGQSITISCTGTSSDVGGYNYVSWYQQHPGKAPKLLIYEVSHRPSGVSDRFSGSKSGNTASLTISGLQAEDEADYYCSSFTSSSSLYVFGTGTKLTVL
notes: IgG prepared by a standard method; also called human anti-human IL-18 antibody 4A6S
binding result [5]: no binding | binding result [6]: no binding | binding result [7]: no binding | binding result [8]: no binding | Neutralizing ability (IC50, nM) [9]: 0.013 nM | EC50 (read off the curve) [10]: ~0.02 µg/mL

— US20190077858A1 (KM BIOLOGICS, published 2019)
